Data on two molecules can be found in doi:10.1101/2025.02.19.639038 (bioRxiv, 2025).

Where “and” joins values, the source holds several entries; their conditions need not be identical. Equal entries are not always repeated.

Data set [1] has as its target Drp6-4A (Drp6 GKFR-AAAA), N-terminal His6 tag (Tetrahymena thermophila) (UniProt Q38KF5).
The target is the same in data set [2]. The data set is described as follows: SEC. (In general: Size exclusion chromatography separates by hydrodynamic size, large species first.)
The data set “SEC” concerns the molecule itself. The data set is described as follows: SEC.

The term stoichiometry N denotes the number of molecules, sites or subunits per partner or assembly. “Drp6-4A (Drp6 GKFR-AAAA), N-terminal His6 tag (from UniProt Q38KF5 1-710) (natural protein)” registered a GTP hydrolysis rate (colorimetric Pi release, 1 μM protein, 1 mM GTP) in data set [1] of 0.83 μM /μM/min. Further, in data set [2], the percent eluted in the tetramer peak (peak2) is 19% and the stoichiometry N is 4.

B1: Dynamin-related protein 6 (Drp6), wild type, N-terminal His6 tag (natural protein, Tetrahymena thermophila, UniProt Q38KF5 1-710, looked up)
chain: MTNTIVPANNFQNIKEVIKVVNKLRDFGIESDKIQLPKIVVIGVQSSGKSSLLEQIVQLDFLPRGTGVVTRCPLEIRLIEVTNQDSDFKPYAYFFEERQKIFHDFELVKKEIQKITNDFAGPGKKIVDKVITLTIYQAQCPTLTLIDLPGMTLNSVGDQKDIERVTQDMTKKYIIEKTTIILCVIPINQDLENSLALNLARSVDENGERTIGVLTMIDIMNPGTNCENVLKNRQIPLLHRYYGMKPRSQKDINENVSVQEAIQREQLYFTSHQIYSMYPEYTGTNALTNKLSTLLDSHIRTFLPSIHKKIKMTLSERIKERQQLGNEFPTEVTQQLYELTNIINTSLNLFKQAMTNYDASEIQNIGKIKVDERVGKSYADFLFDKYLLICKKISEEQVFKVKMKDLIKELGKFRVQVNGFLPFEVFESQIKQKINLYETEAIVILEQLKEHVRKVLNHCIDLFPFPNNKIKKIMQDILQNFVQTEYNFTSSHIKTAFYCYKDCICSKMIDIHETESKLKQNHVYLQNDNQQKKVLYEYISKNKSFMEWTVQEIMIKAENLCNVPITMSDLQNTYTKAEEKVQNTDEVLRYSIIYYKYMDNFRKQISDQIPQCIQSLFINSLCKNLMVKVFQAIQSKEYKEIIEKNLKEDEIIATKRAKVIQSIQKLAKANDRLERLIDQGQNCNHMLSTTYGDEENYIHESLEDSDGIDD
Regarding B1, in “SEC”, the “stoichiometry N” value is ≥ 6 protomers and 4.
